Test results: the supplement of paper PMC7125110
± gives the standard error. Variants at the floor of the assay were thinned out.

B1: glmS ribozyme (parent)
chain: AUAAAAGCGCCAGAACUACAGAAAUGUAGUUGACGAGGAGGAGGUUUAUCGAAUUUUCGGCGGAUGCCUCCAAA

How the values were obtained:
Conditions in all cases: with glucosamine-6-phosphate
glucosamine-6-phosphate [1] = variants of: B1; assay: self-cleavage kobs at 40 uM GlcN6P; higher = faster cleavage; RNA array
Procedure, shortened: (§1)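 E. coli RNA polymerase transcribed barcoded ribozyme variants in situ on sequenced MiSeq chips, which were tracked via a hybridised Cy3 probe at 37 °C. Tiles were imaged over ~14 h after glucosamine-6-phosphate (40 μM to 10 mM) in HEPES/KCl/Mg(OAc)2 buffer was flowed in. Normalised per-tile medians were fit to one- or two-exponential decays for kobs, and kcat and KM came from weighted Michaelis–Menten fits.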

glucosamine-6-phosphate [2] = variants of: B1; assay: self-cleavage kobs at 2500 uM GlcN6P; higher = faster cleavage; RNA array
Procedure, shortened: as §1

glucosamine-6-phosphate [3] = variants of: B1; assay: self-cleavage kobs at 160 uM GlcN6P; higher = faster cleavage; RNA array
Procedure, shortened: as §1

glucosamine-6-phosphate [4] = variants of: B1; assay: self-cleavage kobs at 640 uM GlcN6P; higher = faster cleavage; RNA array
Procedure, shortened: as §1

glucosamine-6-phosphate [5] = variants of: B1; assay: self-cleavage kobs at 10000 uM GlcN6P; higher = faster cleavage; RNA array
Procedure, shortened: as §1

Row | Variant | self-cleavage kobs at 40 uM GlcN6P (glucosamine-6-phosphate [1]) [s⁻¹] | self-cleavage kobs at 2500 uM GlcN6P (glucosamine-6-phosphate [2]) [s⁻¹] | self-cleavage kobs at 160 uM GlcN6P (glucosamine-6-phosphate [3]) [s⁻¹] | self-cleavage kobs at 640 uM GlcN6P (glucosamine-6-phosphate [4]) [s⁻¹] | self-cleavage kobs at 10000 uM GlcN6P (glucosamine-6-phosphate [5]) [s⁻¹]
1 | U47A C50A U54A | < 1e-05 | – | – | – | –
2 | G44U G59U U65G | < 1e-05 | < 1e-05 | – | – | –
3 | G43C A52U | < 1e-05 | < 1e-05 | < 1e-05 | < 1e-05 | < 1e-05
4 | G44U C61G | < 1e-05 | < 1e-05 | < 1e-05 | < 1e-05 | < 1e-05
5 | U47C G59U C70A | < 1e-05 | – | – | – | –
6 | G43U C61U | < 1e-05 | < 1e-05 | < 1e-05 | < 1e-05 | < 1e-05
7 | G43U C61A | < 1e-05 | < 1e-05 | < 1e-05 | < 1e-05 | < 1e-05
8 | G43U C61G | < 1e-05 | < 1e-05 | – | < 1e-05 | < 1e-05
9 | U46C C50G | < 1e-05 | – | – | < 1e-05 | –
10 | U47G G62A | < 1e-05 | – | – | < 1e-05 | –
11 | U47G C58A G59A C70A | 4.75e-05 ± 1.8e-05 | – | – | – | –
12 | G44A C71G | < 1e-05 | – | < 1e-05 | < 1e-05 | < 1e-05
13 | G43A C70G | < 1e-05 | < 1e-05 | < 1e-05 | < 1e-05 | < 1e-05
14 | A48C C70A | < 1e-05 | – | – | < 1e-05 | –
15 | G43U U46A U57C C70A | < 1e-05 | – | – | < 1e-05 | < 1e-05
16 | U45A G60A | < 1e-05 | – | < 1e-05 | – | –
17 | A42U G62U | < 1e-05 | < 1e-05 | < 1e-05 | < 1e-05 | –
18 | U46C G60A | < 1e-05 | – | < 1e-05 | < 1e-05 | –
19 | G44C G51U | < 1e-05 | < 1e-05 | – | – | < 1e-05
20 | A42U U49G C68G | < 1e-05 | – | – | – | –
21 | G43A G44U U55C | < 1e-05 | – | – | – | < 1e-05
22 | A42G U49G C50U U55G G60A | < 1e-05 | – | – | – | < 1e-05
23 | A48C G63A C70A | < 1e-05 | – | – | – | –

Row | Variant | self-cleavage kobs at 40 uM GlcN6P (glucosamine-6-phosphate [1]) [s⁻¹] | self-cleavage kobs at 2500 uM GlcN6P (glucosamine-6-phosphate [2]) [s⁻¹] | self-cleavage kobs at 160 uM GlcN6P (glucosamine-6-phosphate [3]) [s⁻¹] | self-cleavage kobs at 640 uM GlcN6P (glucosamine-6-phosphate [4]) [s⁻¹] | self-cleavage kobs at 10000 uM GlcN6P (glucosamine-6-phosphate [5]) [s⁻¹]
24 | G44C G59C | < 1e-05 | < 1e-05 | – | < 1e-05 | < 1e-05
25 | G43U A48C | < 1e-05 | < 1e-05 | < 1e-05 | < 1e-05 | < 1e-05
26 | G43U G59A G60C | < 1e-05 | < 1e-05 | – | – | < 1e-05
27 | G43C U56A C61G | < 1e-05 | – | – | – | < 1e-05
28 | A48U U49C | < 1e-05 | < 1e-05 | < 1e-05 | – | < 1e-05
29 | U45G G62A | < 1e-05 | < 1e-05 | – | < 1e-05 | < 1e-05
30 | G44C U65G | < 1e-05 | – | < 1e-05 | < 1e-05 | –
31 | A42U G66C | < 1e-05 | – | < 1e-05 | – | –
32 | G43C U47A | < 1e-05 | < 1e-05 | – | < 1e-05 | –
33 | A48C U69G C70U | < 1e-05 | < 1e-05 | – | – | < 1e-05
34 | G43U C50U U55G | < 1e-05 | < 1e-05 | – | < 1e-05 | –
35 | U46A U49C | < 1e-05 | < 1e-05 | < 1e-05 | < 1e-05 | < 1e-05
36 | C50G A53U G63U U69A | 0.00027 ± 6.1e-05 | 0.000121 ± 3.5e-05 | 0.000207 ± 5.6e-05 | – | 0.000127 ± 2.4e-05
37 | U45G G63U A64C | < 1e-05 | – | – | < 1e-05 | –
38 | A48U G63C | < 1e-05 | < 1e-05 | < 1e-05 | < 1e-05 | < 1e-05
39 | G43U G51A U65G G66A | < 1e-05 | – | – | – | –
40 | G44C C68G | < 1e-05 | < 1e-05 | < 1e-05 | < 1e-05 | < 1e-05
41 | G44C U55G C70U | < 1e-05 | – | – | < 1e-05 | –
42 | G44U C50U C67G | < 1e-05 | – | – | – | –
43 | G43U C50G U54G A64U C71U | 7.77e-05 ± 3e-05 | – | – | – | 0.00156 ± 0.00062
44 | C50G A53C C67G | 7.76e-05 ± 2.5e-05 | 0.000336 ± 0.00012 | 0.000121 ± 2.6e-05 | 0.000198 ± 6.2e-05 | 5.98e-05 ± 1.9e-05
45 | U47G A64C | < 1e-05 | – | – | – | –
46 | A48U G59A | < 1e-05 | < 1e-05 | < 1e-05 | < 1e-05 | < 1e-05

Row | Variant | self-cleavage kobs at 40 uM GlcN6P (glucosamine-6-phosphate [1]) [s⁻¹] | self-cleavage kobs at 2500 uM GlcN6P (glucosamine-6-phosphate [2]) [s⁻¹] | self-cleavage kobs at 160 uM GlcN6P (glucosamine-6-phosphate [3]) [s⁻¹] | self-cleavage kobs at 640 uM GlcN6P (glucosamine-6-phosphate [4]) [s⁻¹] | self-cleavage kobs at 10000 uM GlcN6P (glucosamine-6-phosphate [5]) [s⁻¹]
47 | A48G U65C | < 1e-05 | – | – | – | < 1e-05
48 | A42U G51U | < 1e-05 | – | < 1e-05 | < 1e-05 | < 1e-05
49 | U49G C50A | < 1e-05 | – | < 1e-05 | – | –
50 | U46G U65A C70U | 8.31e-05 ± 1.9e-05 | – | – | – | 0.00117 ± 0.00024
51 | U47A U56A | 0.00024 ± 5.3e-05 | 0.00548 ± 0.0015 | 0.000539 ± 0.0001 | 0.00196 ± 0.00027 | 0.0235 ± 0.0091
52 | A48U G60U | < 1e-05 | < 1e-05 | < 1e-05 | < 1e-05 | < 1e-05
53 | A48U U56A C58A | < 1e-05 | – | – | – | –
54 | C50G C70A | 8.32e-05 ± 1.7e-05 | 0.000238 ± 5.8e-05 | 0.000173 ± 5.4e-05 | 0.000163 ± 4.1e-05 | 7.91e-05 ± 1.3e-05
55 | G44U G60C | < 1e-05 | < 1e-05 | < 1e-05 | < 1e-05 | < 1e-05
56 | G44U G51U C67G | < 1e-05 | < 1e-05 | – | – | < 1e-05
57 | U46G U57A | < 1e-05 | – | – | – | 5.59e-05 ± 7.8e-06
58 | G43A G62C U65C C68G | < 1e-05 | – | – | – | –
59 | U45A A53G U55G | 0.00113 ± 0.00021 | – | – | – | 0.0551 ± 0.018
60 | G43A U69G | < 1e-05 | – | – | < 1e-05 | < 1e-05
61 | U47A C58U | < 1e-05 | – | – | – | 6e-05 ± 2.1e-05
62 | U49C U65C | < 1e-05 | – | – | < 1e-05 | < 1e-05
63 | G44A A48U | < 1e-05 | – | < 1e-05 | < 1e-05 | –
64 | G43C A53C U56C | < 1e-05 | < 1e-05 | < 1e-05 | – | < 1e-05
65 | U45A U55C | 0.000654 ± 0.00021 | 0.00714 ± 0.0029 | – | 0.00526 ± 0.0015 | 0.024 ± 0.0085
66 | U47A A53G U54G | 0.000659 ± 0.00016 | – | – | – | 0.0222 ± 0.0081
67 | G44C U49G | < 1e-05 | < 1e-05 | – | – | < 1e-05
68 | G44A C58A C70U | < 1e-05 | – | < 1e-05 | < 1e-05 | –
69 | U49C G59U | < 1e-05 | – | < 1e-05 | < 1e-05 | < 1e-05

Row | Variant | self-cleavage kobs at 40 uM GlcN6P (glucosamine-6-phosphate [1]) [s⁻¹] | self-cleavage kobs at 2500 uM GlcN6P (glucosamine-6-phosphate [2]) [s⁻¹] | self-cleavage kobs at 160 uM GlcN6P (glucosamine-6-phosphate [3]) [s⁻¹] | self-cleavage kobs at 640 uM GlcN6P (glucosamine-6-phosphate [4]) [s⁻¹] | self-cleavage kobs at 10000 uM GlcN6P (glucosamine-6-phosphate [5]) [s⁻¹]
70 | A42U C71G | < 1e-05 | – | < 1e-05 | – | 3.51e-05 ± 1e-05
71 | G43C U57A | < 1e-05 | – | – | < 1e-05 | < 1e-05
72 | U46C G63U C70A | < 1e-05 | – | – | – | –
73 | A42U U46G C50U C70U | < 1e-05 | – | – | – | < 1e-05
74 | G44A G63A | < 1e-05 | < 1e-05 | < 1e-05 | < 1e-05 | –
75 | U46G U54C C67U | 9.53e-05 ± 1.8e-05 | – | – | – | 0.00207 ± 0.00047
76 | U49C G66C | < 1e-05 | – | < 1e-05 | < 1e-05 | < 1e-05
77 | U49C C70U | < 1e-05 | – | – | < 1e-05 | < 1e-05
78 | U46A U69A | < 1e-05 | 0.00022 ± 6.2e-05 | – | 5.02e-05 ± 2e-05 | 9.26e-05 ± 1.9e-05
79 | U47A U56C C70G | < 1e-05 | – | – | – | –
80 | A42U C58A | < 1e-05 | – | < 1e-05 | < 1e-05 | –
81 | A42U G62U C71G | < 1e-05 | – | – | – | < 1e-05
82 | A48C C71A | < 1e-05 | 3.84e-05 ± 1.4e-05 | < 1e-05 | – | 4.23e-05 ± 1e-05
83 | U46C C61G | < 1e-05 | < 1e-05 | < 1e-05 | < 1e-05 | –
84 | U47A U54G | 0.0005 ± 0.00016 | 0.00345 ± 0.0016 | – | 0.0103 ± 0.0034 | –
85 | U47A U54C | 0.000843 ± 0.0002 | 0.014 ± 0.0038 | 0.00125 ± 0.00029 | 0.00582 ± 0.0015 | –
86 | A48G U54A C61U | < 1e-05 | – | – | – | –
87 | A42U G63U | < 1e-05 | < 1e-05 | < 1e-05 | – | < 1e-05
88 | A42U G60U | < 1e-05 | – | < 1e-05 | < 1e-05 | –
89 | U47C A48U C70U | < 1e-05 | – | – | 3.27e-05 ± 1.2e-05 | 0.00044 ± 9.8e-05
